Consider one substance from publication doi:10.1101/2025.03.18.643936.

The assay addresses the i20S and the s20S (human). Kind of assay: mass photometry.

Where “and” joins values, the source holds several entries; their conditions need not be identical. Equal entries are not always repeated.

Regarding “recombinantly expressed and purified human PA200 (from UniProt Q14997 1-1843) (natural protein)”, the Kd, first binding event is 20 nM and 30 nM.
